Changes are numbered by the printed parent chain.
B1: trypsin variant SEQ ID NO: 52 (protein)
chain: IVGGYTCAANSIPYQVSLNSGSHRCGGSLINSQWVVSAAHCYKLRIQVRLGEHNIDVLEGNEQFINAAKIITHPNFNGNTLDNDIMLIKLSSPATLNSRVATVSLPRSCAAAGTECLISGWGNTKSSGSSYPSLLQCLKAPVLSDSSCKSSYPGQITGNMICVGFLEGGKDACQGDSGGPVVCNGQLQGIVSSGYGCAQKNKPGVYTKVCNYVNWIQQTIAAN
B2: trypsin variant SEQ ID NO: 128 (protein)
chain: B1 chain with L44S, Y131P
B3: trypsin variant SEQ ID NO: 114 (protein)
chain: B1 chain with L44P, D56H, R99A, R107T, K125A, K170A, A172S
B4: trypsin variant SEQ ID NO: 23 (protein)
chain: B1 chain with L44S, K125Q
B5: trypsin variant SEQ ID NO: 123 (protein)
chain: B1 chain with R24G, L44S
B6: trypsin variant SEQ ID NO: 122 (protein)
chain: B1 chain with L44S, K170F
B7: trypsin variant SEQ ID NO: 31 (protein)
chain: B1 chain with R24Q, L44S
B8: trypsin variant SEQ ID NO: 124 (protein)
chain: B1 chain with L44S, Y131K
B9: trypsin variant SEQ ID NO: 29 (protein)
chain: B1 chain with R24L, L44S
B10: trypsin variant SEQ ID NO: 112 (protein)
chain: B1 chain with L44P, D56H, G78P, R99H, R107T, K125S, K170A, A172S
B11: trypsin variant SEQ ID NO: 15 (protein)
chain: B1 chain with L44S, K125A
B12: trypsin variant SEQ ID NO: 12 (protein)
chain: B1 chain with L44S, R99D
B13: trypsin variant SEQ ID NO: 20 (protein)
chain: B1 chain with L44S, K125E
B14: trypsin variant SEQ ID NO: 130 (protein)
chain: B1 chain with L44S, S193C
B15: trypsin variant SEQ ID NO: 62 (protein)
chain: B1 chain with L44S, Y131V
B16: trypsin variant SEQ ID NO: 71 (protein)
chain: B1 chain with L44S, S193T
B17: trypsin variant SEQ ID NO: 13 (protein)
chain: B1 chain with L44S, R99E
B18: trypsin variant SEQ ID NO: 27 (protein)
chain: B1 chain with L44S, K170N
B19: trypsin variant SEQ ID NO: 58 (protein)
chain: B1 chain with L44S, R107P
B20: trypsin variant SEQ ID NO: 65 (protein)
chain: B1 chain with L44S, Y131G
B21: trypsin variant SEQ ID NO: 26 (protein)
chain: B1 chain with L44S, K170G
B22: trypsin variant SEQ ID NO: 7 (protein)
chain: B1 chain with L44S, R99W
B23: trypsin variant SEQ ID NO: 66 (protein)
chain: B1 chain with L44S, Y131S
B24: trypsin variant SEQ ID NO: 21 (protein)
chain: B1 chain with L44S, K125H
B25: trypsin variant SEQ ID NO: 63 (protein)
chain: B1 chain with L44S, Y131I
B26: trypsin variant SEQ ID NO: 60 (protein)
chain: B1 chain with L44S, R107S
B27: trypsin variant SEQ ID NO: 129 (protein)
chain: B1 chain with L44S, S193N
B28: trypsin variant SEQ ID NO: 67 (protein)
chain: B1 chain with L44S, Y131Q
B29: trypsin variant SEQ ID NO: 70 (protein)
chain: B1 chain with L44S, S193Y
B30: trypsin variant SEQ ID NO: 76 (protein)
chain: B1 chain with L44S, G78E
B31: trypsin variant SEQ ID NO: 127 (protein)
chain: B1 chain with L44Y
B32: trypsin variant SEQ ID NO: 59 (protein)
chain: B1 chain with L44S, R107G
B33: trypsin variant SEQ ID NO: 28 (protein)
chain: B1 chain with R24V, L44S
B34: trypsin variant SEQ ID NO: 55 (protein)
chain: B1 chain with L44S, D56W
B35: trypsin variant SEQ ID NO: 121 (protein)
chain: B1 chain with L44S, K170I
B36: trypsin variant SEQ ID NO: 72 (protein)
chain: B1 chain with L44S, G78S
B37: trypsin variant SEQ ID NO: 16 (protein)
chain: B1 chain with L44S, K125G
B38: trypsin variant SEQ ID NO: 54 (protein)
chain: B1 chain with L44S, D56A
B39: trypsin variant SEQ ID NO: 8 (protein)
chain: B1 chain with L44S, R99G
B40: trypsin variant SEQ ID NO: 64 (protein)
chain: B1 chain with L44S, Y131W
B41: trypsin variant SEQ ID NO: 126 (protein)
chain: B1 chain with R24E, L44S
B42: trypsin variant SEQ ID NO: 69 (protein)
chain: B1 chain with L44S, S193F
B43: trypsin variant SEQ ID NO: 61 (protein)
chain: B1 chain with L44S, R107D
B44: trypsin variant SEQ ID NO: 22 (protein)
chain: B1 chain with L44S, K125L
B45: trypsin variant SEQ ID NO: 125 (protein)
chain: B1 chain with R24D, L44S
B46: trypsin variant SEQ ID NO: 120 (protein)
chain: B1 chain with L44S, K125P
B47: trypsin variant SEQ ID NO: 30 (protein)
chain: B1 chain with R24S, L44S
B48: trypsin variant SEQ ID NO: 75 (protein)
chain: B1 chain with L44S, G78Y
B49: trypsin variant SEQ ID NO: 68 (protein)
chain: B1 chain with L44S, Y131D
B50: trypsin variant SEQ ID NO: 17 (protein)
chain: B1 chain with L44S, K125Y

Target: pre-pro-human insulin

| Protein | Activity PPI cleavage | Selectivity [%] |
| --- | --- | --- |
| B1 | yes | >90 |
| B2 | yes | 57.1 |
| B3 | yes | >90 |
| B4 | yes | >90 |
| B5 | yes | 60.7 |
| B6 | yes | 59.4 |
| B7 | yes | >62.1 |
| B8 | yes | 27.6 |
| B9 | yes | >90 |
| B10 | yes | >90 |
| B11 | yes | >90 |
| B12 | yes | >90 |
| B13 | yes | >90 |
| B14 | yes | 33.8 |
| B15 | yes | >90 |
| B16 | yes | >62.1 |
| B17 | yes | >90 |
| B18 | yes | >80 |
| B19 | yes | >90 |
| B20 | yes | >80 |
| B21 | yes | >80 |
| B22 | yes | >90 |
| B23 | yes | >90 |
| B24 | yes | >90 |
| B25 | yes | >90 |

| Protein | Activity PPI cleavage | Selectivity [%] |
| --- | --- | --- |
| B26 | yes | >90 |
| B27 | yes | 44.8 |
| B28 | yes | >90 |
| B29 | yes | >70 |
| B30 | yes | >90 |
| B31 | yes | 20.5 |
| B32 | yes | >90 |
| B33 | yes | >90 |
| B34 | yes | >90 |
| B35 | yes | 4.6 |
| B36 | yes | >90 |
| B37 | yes | >90 |
| B38 | yes | >90 |
| B39 | yes | >90 |
| B40 | yes | >90 |
| B41 | yes | 7.2 |
| B42 | yes | >70 |
| B43 | yes | >80 |
| B44 | yes | >90 |
| B45 | yes | 12.2 |
| B46 | yes | 1.4 |
| B47 | yes | >70 |
| B48 | yes | >90 |
| B49 | yes | >70 |
| B50 | yes | >80 |

Reference: US20230303994
